According to paper PMC10471174:

Target: T1, purified human SAP30 protein (GST removed) (human), O75446
T1 chain: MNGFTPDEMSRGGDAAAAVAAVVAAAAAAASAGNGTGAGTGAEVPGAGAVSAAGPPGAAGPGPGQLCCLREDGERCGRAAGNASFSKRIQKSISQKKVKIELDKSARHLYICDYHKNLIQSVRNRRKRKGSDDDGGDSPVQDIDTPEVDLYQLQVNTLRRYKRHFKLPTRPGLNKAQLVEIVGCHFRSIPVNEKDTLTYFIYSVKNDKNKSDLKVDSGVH
Assay: SDS-PAGE under non-reducing conditions; purified SAP30 (GST removed) treated with or without β-mercaptoethanol and boiling; Coomassie staining and immunoblot
Conditions: remark: other sources report otherwise

B1: purified human SAP30 protein (GST removed), O75446 1-220 (natural protein)
chain: MNGFTPDEMSRGGDAAAAVAAVVAAAAAAASAGNGTGAGTGAEVPGAGAVSAAGPPGAAGPGPGQLCCLREDGERCGRAAGNASFSKRIQKSISQKKVKIELDKSARHLYICDYHKNLIQSVRNRRKRKGSDDDGGDSPVQDIDTPEVDLYQLQVNTLRRYKRHFKLPTRPGLNKAQLVEIVGCHFRSIPVNEKDTLTYFIYSVKNDKNKSDLKVDSGVH
B1 was tested. Which stoichiometry N did it give?
The stoichiometry N was 2.
